Values of other authors in paper PMC4379523.

Biological target: ribosomal protein L3 N-terminal peptide (L3Δ21) 1-21 (Saccharomyces cerevisiae) (UniProt P14126)
Experiment: SPR

Chain of UniProt P14126 (P14126 1-21, stated change not applied): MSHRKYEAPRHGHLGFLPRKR

Pokeweed antiviral protein (PAP) (from UniProt P10297)
Kd: 0.0248 µM
